Reference: article PMC2255029, “UV-A-induced structural and functional changes in human lens deamidated αB-crystallin” (Molecular Vision, 2008)
Substitutions are numbered along the chain they refer to.

B1: wild type (WT) αB-crystallin (natural protein, human, UniProt P02511 1-175, looked up)
chain: MDIAIHHPWIRRPFFPFHSPSRLFDQFFGEHLLESDLFPTSTSLSPFYLRPPSFLRAPSWFDTGLSEMRLEKDRFSVNLDVKHFSPEELKVKVLGDVIEVHGKHEERQDEHGFISREFHRKYRIPADVDPLTITSSLSSDGVLTVNGPRKQVSGPERTIPITREEKPAVTAAPKK
notes: αB-crystallin, human, 175 amino acid residues; cDNA cloned in plasmid pDIRECT; Oligomer; Also used after UV-A exposure (320-400 nm; 20 or 50 J/cm^2), which oxidises Met and/or Trp residues and partly degrades the protein; source: E. coli BL21 (DE3) pLysS, purified (DEAE-Sephacel, Butyl-Sepharose, size-exclusion HPLC)
B2: αB-Asn78/146Asp deamidated double mutant protein (natural protein, human, UniProt P02511 1-175, looked up)
chain: B1 chain with N78D, N146D
notes: αB-crystallin, human, 175 amino acid residues; cDNA cloned in plasmid pDIRECT; both Asn78 and Asn146 changed to Asp by site-directed mutagenesis; Mimics deamidation of Asn78 and Asn146; Also used after UV-A exposure; source: E. coli BL21 (DE3) pLysS, purified (DEAE-Sephacel, Butyl-Sepharose, size-exclusion HPLC)
B3: αB-Asn146Asp deamidated mutant protein (natural protein, human, UniProt P02511 1-175, looked up)
chain: B1 chain with N146D
notes: αB-crystallin, human, 175 amino acid residues; cDNA cloned in plasmid pDIRECT; Asn146 changed to Asp by site-directed mutagenesis; Mimics deamidation of Asn146; Also used after UV-A exposure; source: E. coli BL21 (DE3) pLysS, purified (DEAE-Sephacel, Butyl-Sepharose, size-exclusion HPLC)
B4: αB-Asn78Asp deamidated mutant protein (natural protein, human, UniProt P02511 1-175, looked up)
chain: B1 chain with N78D
notes: αB-crystallin, human, 175 amino acid residues; cDNA cloned in plasmid pDIRECT; Asn78 changed to Asp by site-directed mutagenesis; Mimics deamidation of Asn78; Also used after UV-A exposure; source: E. coli BL21 (DE3) pLysS, purified (DEAE-Sephacel, Butyl-Sepharose, size-exclusion HPLC)

Molecular target: the molecule itself
Assay: cross-linking; UV-A irradiation (320-400 nm; 20 and 50 J/cm^2, about 5 °C, 50 mM phosphate buffer, pH 7.5) of the purified protein, then SDS-PAGE after treatment with 150 mM β-mercaptoethanol; 40 kDa species

Protein | stoichiometry N
B1 | 2
B2 | 2
B3 | 2
B4 | 2
